Test results: publication PMC3795721, “Screening for Protein-DNA Interactions by Automatable DNA-Protein Interaction ELISA”

T1: AtTIFY1 (Arabidopsis thaliana, UniProt Q9LRH6 1-309)
T1 sequence: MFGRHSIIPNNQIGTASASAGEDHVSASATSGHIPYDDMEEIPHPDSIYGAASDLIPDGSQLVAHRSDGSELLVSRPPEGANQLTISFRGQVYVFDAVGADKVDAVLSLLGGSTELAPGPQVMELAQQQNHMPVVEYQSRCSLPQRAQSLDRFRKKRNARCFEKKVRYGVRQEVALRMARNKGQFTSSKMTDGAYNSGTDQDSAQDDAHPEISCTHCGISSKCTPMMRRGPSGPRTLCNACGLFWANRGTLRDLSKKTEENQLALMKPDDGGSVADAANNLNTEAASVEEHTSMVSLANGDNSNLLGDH

T2: AtbZIP63 (Arabidopsis thaliana, UniProt B9DGI8 1-314)
T2 sequence: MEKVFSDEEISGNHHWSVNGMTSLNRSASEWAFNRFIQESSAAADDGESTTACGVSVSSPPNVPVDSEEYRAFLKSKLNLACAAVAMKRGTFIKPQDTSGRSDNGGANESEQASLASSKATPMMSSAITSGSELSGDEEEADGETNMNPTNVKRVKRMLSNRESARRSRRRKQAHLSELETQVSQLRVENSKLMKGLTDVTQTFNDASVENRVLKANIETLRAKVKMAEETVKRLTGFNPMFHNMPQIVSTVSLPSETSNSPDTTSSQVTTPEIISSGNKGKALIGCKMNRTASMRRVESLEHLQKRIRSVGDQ

B1: 201 (dsDNA)
DNA 1: AAAAAAGATCTAGGCCTTGGGACTCAAAAA
DNA 2: TTTTTGAGTCCCAAGGCCTAGATCTTTTTT
B2: 260 (dsDNA)
DNA 1: AAAAAAGTATAACGTGTTGTTGACCGAAAA
DNA 2: TTTTCGGTCAACAACACGTTATACTTTTTT
B3: 202 (dsDNA)
DNA 1: AAAAAAGATTGACTCGTCTTACTCGAAAAA
DNA 2: TTTTTCGAGTAAGACGAGTCAATCTTTTTT
B4: 109 (dsDNA)
DNA 1: AAAAAATACGTCTACGTGGTTGTCGTAAAA
DNA 2: TTTTACGACAACCACGTAGACGTATTTTTT
B5: 282 (dsDNA)
DNA 1: AAAAAACAGGCCGATTCCGATCCCGGAAAA
DNA 2: TTTTCCGGGATCGGAATCGGCCTGTTTTTT
B6: 173 (dsDNA)
DNA 1: AAAAAATACATTTGACTTTGGGTTTCAAAA
DNA 2: TTTTGAAACCCAAAGTCAAATGTATTTTTT
B7: 31 (dsDNA)
DNA 1: AAAAAATCCACGACTCAGCAGCTCTTAAAA
DNA 2: TTTTAAGAGCTGCTGAGTCGTGGATTTTTT
B8: 195 (dsDNA)
DNA 1: AAAAAATGGTCGTCGTACTCGTGGTCAAAA
DNA 2: TTTTGACCACGAGTACGACGACCATTTTTT
B9: 124 (dsDNA)
DNA 1: AAAAAAACTCACGGCGTCACTATGGTAAAA
DNA 2: TTTTACCATAGTGACGCCGTGAGTTTTTTT
B10: 233 (dsDNA)
DNA 1: AAAAAAGGTCCAGTCCACGTCATCAGAAAA
DNA 2: TTTTCTGATGACGTGGACTGGACCTTTTTT
B11: 294 (dsDNA)
DNA 1: AAAAAACGTGCGCGTGCATGTCATCGAAAA
DNA 2: TTTTCGATGACATGCACGCGCACGTTTTTT
B12: 36 (dsDNA)
DNA 1: AAAAAATTTGGTCTTCGTCCTCGCTTAAAA
DNA 2: TTTTAAGCGAGGACGAAGACCAAATTTTTT
B13: 64 (dsDNA)
DNA 1: AAAAAATCGGGCCCCGTTAGCACTCTAAAA
DNA 2: TTTTAGAGTGCTAACGGGGCCCGATTTTTT
B14: 271 (dsDNA)
DNA 1: AAAAAACGTTGAACCTGGGCCTCAACAAAA
DNA 2: TTTTGTTGAGGCCCAGGTTCAACGTTTTTT
B15: 97 (dsDNA)
DNA 1: AAAAAAAGTTTGACCTTGGCGTTCGTAAAA
DNA 2: TTTTACGAACGCCAAGGTCAAACTTTTTTT
B16: 44 (dsDNA)
DNA 1: AAAAAAGTACATGCGTAGATAATGTTAAAA
DNA 2: TTTTAACATTATCTACGCATGTACTTTTTT
B17: 259 (dsDNA)
DNA 1: AAAAAAGTAGGTGCTGATGCTGGCCGAAAA
DNA 2: TTTTCGGCCAGCATCAGCACCTACTTTTTT
B18: 92 (dsDNA)
DNA 1: AAAAAAAGTCTGCGGCTGCAGGGCGGAAAA
DNA 2: TTTTCCGCCCTGCAGCCGCAGACTTTTTTT
B19: 153 (dsDNA)
DNA 1: AAAAAATGTATTCGTGTCCACTCCATAAAA
DNA 2: TTTTATGGAGTGGACACGAATACATTTTTT
B20: 313 (dsDNA)
DNA 1: AAAAAATCGCGAACGTACGTCCGCGGAAAA
DNA 2: TTTTCCGCGGACGTACGTTCGCGATTTTTT
B21: 83 (dsDNA)
DNA 1: AAAAAATATGTAGCTGCCGTTACGCTAAAA
DNA 2: TTTTAGCGTAACGGCAGCTACATATTTTTT
B22: 43 (dsDNA)
DNA 1: AAAAAAAGGTCATTGCTGCTGGTGTTAAAA
DNA 2: TTTTAACACCAGCAGCAATGACCTTTTTTT
B23: 223 (dsDNA)
DNA 1: AAAAAAGGCCACGGTAACCCCTTTTGAAAA
DNA 2: TTTTCAAAAGGGGTTACCGTGGCCTTTTTT
B24: 91 (dsDNA)
DNA 1: AAAAAAAGTGGCCGCTAGTCAACTCAAAAA
DNA 2: TTTTTGAGTTGACTAGCGGCCACTTTTTTT
B25: 54 (dsDNA)
DNA 1: AAAAAAGTCCGCCCTTAATTCATATTAAAA
DNA 2: TTTTAATATGAATTAAGGGCGGACTTTTTT
B26: 108 (dsDNA)
DNA 1: AAAAAAGGCGTCTGACTGTAACTCGTAAAA
DNA 2: TTTTACGAGTTACAGTCAGACGCCTTTTTT
B27: 239 (dsDNA)
DNA 1: AAAAAAGTCGTTACACGTATGCGTGCAAAA
DNA 2: TTTTGCACGCATACGTGTAACGACTTTTTT
B28: 57 (dsDNA)
DNA 1: AAAAAAAATTAGTCTCTTCGTCTCCCAAAA
DNA 2: TTTTGGGAGACGAAGAGACTAATTTTTTTT
B29: 88 (dsDNA)
DNA 1: AAAAAATCAACCATTATGGTATTACTAAAA
DNA 2: TTTTAGTAATACCATAATGGTTGATTTTTT
B30: 287 (dsDNA)
DNA 1: AAAAAACACGCCATTGACACTGGTAAAAAA
DNA 2: TTTTTTACCAGTGTCAATGGCGTGTTTTTT
B31: 137 (dsDNA)
DNA 1: AAAAAAACTCTAGGTCAATATTATTCAAAA
DNA 2: TTTTGAATAATATTGACCTAGAGTTTTTTT
B32: 276 (dsDNA)
DNA 1: AAAAAACATCGCTGTCGTTGACGTTGAAAA
DNA 2: TTTTCAACGTCAACGACAGCGATGTTTTTT
B33: 117 (dsDNA)
DNA 1: AAAAAAATCAGCCTGACTCTGGGCGTAAAA
DNA 2: TTTTACGCCCAGAGTCAGGCTGATTTTTTT
B34: 246 (dsDNA)
DNA 1: AAAAAACTGACCGTCAGCGCCCACGCAAAA
DNA 2: TTTTGCGTGGGCGCTGACGGTCAGTTTTTT
B35: 110 (dsDNA)
DNA 1: AAAAAAGCGTAAGCCTTGACAGTCGTAAAA
DNA 2: TTTTACGACTGTCAAGGCTTACGCTTTTTT
B36: 270 (dsDNA)
DNA 1: AAAAAACATGTCGCACCTGTACTAACAAAA
DNA 2: TTTTGTTAGTACAGGTGCGACATGTTTTTT
B37: 234 (dsDNA)
DNA 1: AAAAAAGGTCTGGACGATCACCGGGAAAAA
DNA 2: TTTTTCCCGGTGATCGTCCAGACCTTTTTT
B38: 101 (dsDNA)
DNA 1: AAAAAAGTCTAAGGACTTATAGCTGTAAAA
DNA 2: TTTTACAGCTATAAGTCCTTAGACTTTTTT
B39: 32 (dsDNA)
DNA 1: AAAAAACCTACGATGGTTCTGATCTTAAAA
DNA 2: TTTTAAGATCAGAACCATCGTAGGTTTTTT
B40: 222 (dsDNA)
DNA 1: AAAAAAGGCGGTCGTAGTTGTGGGAGAAAA
DNA 2: TTTTCTCCCACAACTACGACCGCCTTTTTT

Columns and labels:
Experiment in all cases: DPI-ELISA; DPI-ELISA, streptavidin 384-well plate, 1-2 pmol biotinylated dsDNA per well, crude native E. coli extract, anti-His detection; buffer as in Brand et al. [46],; high values mean tight binding
AtTIFY1 = biological target: T1, AtTIFY1; conditions: tags: C-terminal His (pET-DEST42); label: 5' biotin on forward strand
WRKY33 cDBD = WRKY33 cDBD (Arabidopsis thaliana, UniProt Q8S8P5 345-449); conditions: tags: C-terminal His (pET-DEST42); label: 5' biotin on forward strand
AtbZIP63 = biological target: T2, AtbZIP63; conditions: tags: C-terminal His (pET-DEST42); chain copies: 2; label: 5' biotin on forward strand

Sequence of WRKY33 cDBD (Q8S8P5 other isoform, or with tags, fused parts or gaps): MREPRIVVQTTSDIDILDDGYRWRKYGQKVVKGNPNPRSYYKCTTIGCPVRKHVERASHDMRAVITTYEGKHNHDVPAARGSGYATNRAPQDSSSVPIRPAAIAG

Binder | binding signal (AtTIFY1) | binding signal (WRKY33 cDBD) | binding signal (AtbZIP63)
B1 | 1.81 relative normalized absorbance |  | 
B2 |  | 2.33 relative normalized absorbance | 
B3 |  | 2.3 relative normalized absorbance | 2.68 relative normalized absorbance
B4 |  |  | 2.98 relative normalized absorbance
B5 | 1.83 relative normalized absorbance |  | 
B6 |  | 2.31 relative normalized absorbance | 
B7 |  |  | 2.32 relative normalized absorbance
B8 |  | 2.34 relative normalized absorbance | 
B9 |  |  | 2.46 relative normalized absorbance
B10 |  | 2.34 relative normalized absorbance | 2.57 relative normalized absorbance
B11 |  |  | 1.97 relative normalized absorbance
B12 |  | 2.17 relative normalized absorbance | 
B13 |  |  | 2.04 relative normalized absorbance
B14 |  | 2.33 relative normalized absorbance | 
B15 |  | 2.28 relative normalized absorbance | 
B16 |  |  | 2.11 relative normalized absorbance
B17 |  |  | 1.92 relative normalized absorbance
B18 |  | 2.36 relative normalized absorbance | 
B19 |  |  | 1.89 relative normalized absorbance
B20 |  |  | 2.62 relative normalized absorbance

Binder | binding signal (AtTIFY1) | binding signal (WRKY33 cDBD) | binding signal (AtbZIP63)
B21 |  | 2.34 relative normalized absorbance | 
B22 |  | 2.19 relative normalized absorbance | 
B23 |  |  | 2.06 relative normalized absorbance
B24 |  | 2.25 relative normalized absorbance | 
B25 |  | 2.35 relative normalized absorbance | 
B26 |  | 2.35 relative normalized absorbance | 2.54 relative normalized absorbance
B27 |  | 2.32 relative normalized absorbance | 2.62 relative normalized absorbance
B28 |  | 2.01 relative normalized absorbance | 
B29 |  | 2.02 relative normalized absorbance | 
B30 |  |  | 1.99 relative normalized absorbance
B31 |  | 2.3 relative normalized absorbance | 
B32 |  | 2.34 relative normalized absorbance | 2.02 relative normalized absorbance
B33 |  | 2.01 relative normalized absorbance | 
B34 |  | 2.09 relative normalized absorbance | 1.96 relative normalized absorbance
B35 |  |  | 1.94 relative normalized absorbance
B36 |  |  | 1.93 relative normalized absorbance
B37 | 1.7 relative normalized absorbance |  | 
B38 |  | 2.37 relative normalized absorbance | 
B39 | 1.8 relative normalized absorbance |  | 
B40 |  | 2.35 relative normalized absorbance | 
